Measured values from article PMC4081090, “Structure of the N-glycosidase MilB in complex with hydroxymethyl CMP reveals its Arg23 specifically recognizes the substrate and controls its entry” (Nucleic Acids Research, 2014).
Substitutions are numbered along the chain they refer to. In names and notes the source's numbering stands.

B1: N-glycosidase MilB, wild type (enzyme, Streptomyces remofaciens ZJU5119, UniProt B4Y381 1-170, looked up)
chain: MTTTPKPRTAPAVGSVFLGGPFRQLVDPRTGVMSSGDQNVFSRLIEHFESRGTTVYNAHRREAWGAEFLSPAEATRLDHDEIKAADVFVAFPGVPASPGTHVEIGWASGMGKPMVLLLERDEDYAFLVTGLESQANVEILRFSGTEEIVERLDGAVARVLGRAGEPTVIG
notes: MilB, N-glycosidase (CMP/hydroxymethyl CMP hydrolase) of the mildiomycin biosynthesis pathway, Streptomyces remofaciens ZJU5119; the full-length protein consists of 170 residues; residues 12-169 are seen in the crystal model; Cloned into pET28a with an N-terminal 6xHis tag; also called WT MilB; full-length MilB; source: E. coli BL21(DE3), purified (Ni-NTA, Superdex200 gel filtration)
B2: MilB (Streptomyces rimofaciens; R23M) (protein)
chain: B1 chain with R23M
notes: full-length (170 residues), N-terminal 6xHis tag (pET28a), E. coli BL21(DE3); dimer; crystal model residues 12-169 / 12-170

Legend:
BlsM = molecular target: T1, BlsM (Streptomyces griseochromogenes, UniProt Q841K1); experiment: HPLC of released 5hmC, Michaelis-Menten fit; assay type: biochemical; conditions: 50 mM Tris-HCl, pH 7.2, 37 °C, 30 min
T1 construct: N-terminal 6xHis tag (pET28a), E. coli BL21(DE3)
T1 sequence (Q841K1 entry or part of it): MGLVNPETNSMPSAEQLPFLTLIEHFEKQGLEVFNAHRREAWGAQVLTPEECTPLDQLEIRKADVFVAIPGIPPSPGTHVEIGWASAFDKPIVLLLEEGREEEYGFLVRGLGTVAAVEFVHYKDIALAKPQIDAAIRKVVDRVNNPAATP
Description: HPLC of released 5hmC, Michaelis-Menten fit on BlsM

[1] = substrate: Nc1nc(=O)n([C@@H]2O[C@H](COP(=O)(O)O)[C@@H](O)[C@H]2O)cc1CO; experiment: HPLC of released 5hmC, Michaelis-Menten fit; assay type: biochemical, Streptomyces rimofaciens; conditions: 50 mM Tris-HCl, pH 7.2, 37 °C, 30 min
Description: HPLC of released 5hmC, Michaelis-Menten fit on MilB

[2] = molecular target: the molecule itself; experiment: SEC; size exclusion chromatography of MilB in solution (Figure S1); conditions of this run not given
[3] = substrate: Nc1ccn([C@@H]2O[C@H](COP(=O)(O)O)[C@@H](O)[C@H]2O)c(=O)n1; experiment: HPLC of released cytosine, Michaelis-Menten fit; assay type: biochemical, Streptomyces rimofaciens; conditions: 50 mM Tris-HCl, pH 7.2, 37 °C, 30 min
Description: HPLC of released cytosine, Michaelis-Menten fit on MilB

| Molecule | Km (BlsM) | Km [1] | kcat [1] | kcat/Km [1] | stoichiometry N [2] | Km [3] | kcat [3] | kcat/Km [3] |
| --- | --- | --- | --- | --- | --- | --- | --- | --- |
| Nc1nc(=O)n([C@@H]2O[C@H](COP(=O)(O)O)[C@@H](O)[C@H]2O)cc1CO [hmCMP, 5-hydroxymethyl cytidine 5′-monophosphate] | 328 µM | – | – | – | – | – | – | – |
| B1 | – | 71.55 (11.66) μM | 0.0531 s⁻¹ | 743 M⁻¹ s⁻¹ | 2 | – | – | – |
| B2 | – | 86.63 (10.67) μM | 0.0156 s⁻¹ | 180 M⁻¹ s⁻¹ | – | 1122.00 (100) μM | 0.0305 s⁻¹ | 27.1 M⁻¹ s⁻¹ |
